Measurements reported in the DeepSol protein solubility set.

assay: soluble on expression in E. coli; label from the status in PepcDB or PDB records

Soluble on expression in E. coli, not soluble:
MAFKPVSITGTRRQAGQALGKLARPLMATYLEQSTVWAALRPWRGHAYLEALAHEASQALPEIWDELEGLAEGLRMPLVDILLWNCRGDLLHKTSDGCTSIAWRGDEDARWIAHNEDGDPFLYGRCHMVDVRTDDAPGYISFYYPGSLPGHTFGANRAGLVQTINNVRIRQRHAGVPRMLLARAVLDCATLDDALAVLRDHPRAGGFHHTLGAAGEPRLYSVEASPAACSIGEVARGNGHANHLVHPGSEAIGQIVTDSSRSRQRHIENLMDHWQPPVDGARLVATLLDREGELPILRCGADDPDEENTLATALFEMRDGGLTLQVHDRRDQPALRVTVCPAALEHHHHHH
MGSDKIHHHHHHMQLKQSIYFHSPIFLQNILTTIYGRVLYQERYGPVYQKRLQELKEKERFQTNAQAEQLARLNQFLLFCQTYSPYYQELFEQHRITLPLETLDELKQIPILSKEILRTRNADVHAKIRAPILGKTGGTTGKSIQVHYTKEDMQIRMAHLDYFKWTHGIERGMRRASFTGQTLAAESQKAPVYWRMNKAINQMLFTIKNINPQTAALYIEQLNRFNPESIDGLPSGMIEVARHAKKYNIPCTFRPKAIFPTAEMMTAAERQLIEEVFHAPIFDQYASSEGAPIVAECRYGKKHLHYEMGIIEVEEDGQILVTSFDTHGTPLVRYRVGDRMTLSEATCQCGHAGPVIASIDGRGRSFIQLKDGHRIFEGELAGIVRAFPNCIERVQYIQSDKEEIVMLYVPDERCFKEEHEKELYFVLKRLFGGQMEVLLRAVPEIPKEISGKTLLIKQLLLEKS
LENDRTTFRIRNLDSGEIIWSGMGAVYPVYSPSFDHAADAFAFAFSSPADPPEIHLLRDAETKSSINSHLDGVSPYPAEIVEWKAKDGEDLYGILRLIDPKNPLIVYIHGGPTSFSYASFLDRTSIYLGYGFNVFAPNYRGSVGKGRRYAELNVGDLGGKDFDDVISGIEFLKNTGKIATDRIYITGGSYGGYMSALAVMKTDIFRASVSLFGISDWVSFHGVSNLHLWDRLHMDADPWAFKKYDEYSPIRIMHEPKTPTLLMHGIKDPYVPIGQYYEFYRFLKEKNCEVRMIVFPREGHGFTEKEHIRRQYMETIRFMKDH

Soluble on expression in E. coli, soluble:
MQLRKMQTVKKEQASLDASSNVDKMMVLNSALTEVSEDSTTGEELLLSEGSVGKNKSSACRRKREFIPDEKKDAMYWEKRRKNNEAAKRSREKRRLNDLVLENKLIALGEENATLKAELLSLKLKFGLISSTAYAQEIQKLSNSTAVYFQDYQTSKSNVSSFVDEHEPSMVSSSCISVIKHSPQSSLSDVSEVSSVEHTQESSVQGSCRSPENKFQIIKQEPMELESYTREPRDDRGSYTASIYQNYMGNSFSGYSHSPPLLQVNRSSSNSPRTSETDDGVVGKSSDGEDEQQVPKGPIHSPVELKHVHATVVKVPEVNSSALPHKLRIKAKAMQIKVEAFDNEFEATQKLSSPIDMTSKRHFELEKHSAPSMVHSSLTPFSVQVTNIQDWSLKSEHWHQKELSGKTQNSFKTGVVEMKDSGYKVSDPENLYLKQGIANLSAEVVSLKRLIATQPISASDSG
MSLLQEMTIKNFAIIESLSLTFQEGMTVLTGETGAGKSIIIDALGLLVGGRGSADFIRHGEERLELQGLFALAEDNLACRNALIENGIDASDDMVVLERSLFRSGKNSCRINGKLVTTVLLRQIGSKLIDIHSQHEHQELMNEEFHLSLLDRFASDKIKPALTKYQTNFKEYQTIEKEWQNWTKNERELAQRLDMLRFQQQEIENANLQAGEEDRLLEQKNILANFEKLNENLQGAYAAIQGEPGGLEFVGEAMRQMEAAASIHTDYKAVSEAISSSYYMLEDSMSQIRQSLDQLEFQPEELNQIESRLNDLNQLKRKYGKTIEDIIQYEQEISSEMEKLTDSESHVGHLETKLATLKAELTKQANTLTEIRKKAAVTLEKQIKQELNHLYMEKAIFSVRFEANKMELTDSGQDSVVFYMSTNPGEPLKPLAKIASGGELSRMMLALKTIFSRHQGITSIIFDEVDTGVSGRVGQAIAEKIYAVSVGSQVLCISHLPQVAAMANHHYYITKKVQNKRTTTSVTVLKGEEKVEEISRMIAGIEVTELTKQHAKEMIEQAEKVKQTYEGHHHHHH
MSLGILEDKKRARIFYRYFSKIYDYINPIFYSDKMRKTVVDMADIDAESLVLEVGCGTGFTTEEIVRRIGEERVVAVDITPEQMMKARAKMGGVNYFLGDAENLPFKDNSFDAAISAGSIEYWPNPQRGIEEMARVTKSGGKVVILAPRKPDNFAVRKFAESIMLFPSTQQCVYWFMKAGLEDIRFVETGPYRFWSKLVVIISGTVPEGHHHHHH
